Laboratory results: patent US7951914B2, “Genetically modified cyclic-nucleotide controlled ion channels” (Forschungszentrum Julich GmbH, priority 2001, dated 2011)
Where a chain is given by its changes, count along the chain named. Names and notes keep the numbering of the source.

What was measured:
[1] = target: Drosophila dopamine receptor (Drosophila melanogaster, UniProt P41596); settings: dopamine 25-600 nM, FIG. 5A
Method: On the day after transfection, the cells were seeded into a multiwell plate with 96 wells. The cell density per well was 2×10^4 cells.
The fluorimetric measurements of intracellular Ca^2+ concentrations were carried out in multiwell plates with 96 wells (FIG. 5A-5G). The cells were loaded with the Ca^2+-sensitive fluorescent dye Fluo-4 one hour before the measurement. The loading solution contained 120 mM of NaCl, 3 mM of KCl, 50 mM of glucose, 10 mM of Hepes (pH 7.4), 3 mM of MgCl2 and 4 μm of Fluo4-AM (molecular probes). The measuring solution contained 120 mM of NaCl, 3 mM of KCl, 50 mM of glucose, 10 mM of Hepes (pH 7.4) and 3 mM of CaCl2. The time course of the change in fluorescence intensity after application of agonists, antagonists, enzyme activators or enzyme inhibitors was registered using a fluorescence reader (FLUOstar, BMG-Labtechnologies). The excitation wavelength was 485 nm. The emission wavelength was 520 nm.

[2] = system: endogenous phosphodiesterase (PDE); assay: Fluorescence-optical Ca2+ measurement: phosphodiesterase inhibition with T537M cAMP sensor; assay type: cell-based, human; settings: IBMX 0-100 μm, then 5 μm forskolin, FIG. 5E
Text: (§1) The excitation wavelength was 485 nm. The emission wavelength was 520 nm.
The effect of a phosphodiesterase (PDE) inhibitor on the forskolin-induced change in intracellular Ca^2+ concentration is shown. Cells which stably express the T537M mutants of the α3-CNG channel were first treated with different concentrations of the PDE inhibitor IBMX and then stimulated with 5 μm forskolin. […] The IBMX concentration was 0 μm (filled circles), 10 μm (open circles), 50 μm (filled triangles) or 100 μm (open triangles).

Adenosine A2B receptor = target: T1, Adenosine A2B receptor (Rattus norvegicus, UniProt P29276); settings: Peakman and Hill 1994, primary rat astrocytes; read-out: K1/2 value indicated in the literature; cited from earlier work
T1 construct: host or cells: primary rat astrocytes
T1 sequence (P29276 1-332): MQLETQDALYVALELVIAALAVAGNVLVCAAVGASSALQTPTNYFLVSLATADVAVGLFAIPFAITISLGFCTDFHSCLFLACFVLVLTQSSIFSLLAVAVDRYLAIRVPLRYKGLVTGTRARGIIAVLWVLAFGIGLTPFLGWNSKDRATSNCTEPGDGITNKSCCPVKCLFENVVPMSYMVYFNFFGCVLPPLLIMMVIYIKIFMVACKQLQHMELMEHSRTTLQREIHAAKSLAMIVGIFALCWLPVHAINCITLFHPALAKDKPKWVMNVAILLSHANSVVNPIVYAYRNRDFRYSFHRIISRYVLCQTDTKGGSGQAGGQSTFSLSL

[3] = target: T2, corticotropin-releasing factor (CRF) receptor (Rattus norvegicus, UniProt P35353); assay: Fluorescence-optical Ca2+ measurement: CRF receptor with T537M cAMP sensor; assay type: cell-based; settings: agonist CRF 100-1,000 pM, FIG. 5B
T2 construct: expressed in transfected cells; host or cells: HEK293 stably co-expressing pcCRFR1 and bovine α3 T537M
T2 sequence (P35353 24-415): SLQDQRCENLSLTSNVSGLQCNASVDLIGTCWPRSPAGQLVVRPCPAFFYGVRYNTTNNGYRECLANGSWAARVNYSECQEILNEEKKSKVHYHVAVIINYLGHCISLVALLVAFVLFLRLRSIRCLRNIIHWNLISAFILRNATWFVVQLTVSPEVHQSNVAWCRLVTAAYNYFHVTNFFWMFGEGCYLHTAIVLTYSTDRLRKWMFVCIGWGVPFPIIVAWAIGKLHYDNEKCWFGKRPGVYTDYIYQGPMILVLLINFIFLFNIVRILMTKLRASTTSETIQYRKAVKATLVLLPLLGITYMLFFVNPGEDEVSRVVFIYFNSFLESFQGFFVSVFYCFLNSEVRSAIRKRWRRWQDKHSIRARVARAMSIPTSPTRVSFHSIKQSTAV
Method: The CRF receptor was cloned by carrying out a PCR of primary strand cDNA of rat hypophyses, using the primers #843 (5′-[…]-3′) (SEQ ID NO 11) and #842 (5′-[…]-3′) (SEQ ID NO 12). A 100 μl PCR mixture comprised 10 ng of primary strand cDNA, 1×PCR buffer for Taq polymerase incl. 1.5 mM of MgCl2, 200 μm of dNTPs, 1 U of Taq polymerase and in each case 150 ng of the two primers. The PCR conditions were as follows. 2 minutes of denaturation at 94° C., followed by 44 cycles of in each case 45 s at 94° C., 45 s at 56° C., 75 s at 72° C. The 1271 bp fragment was cloned via BamHI and SacI in pBluescript SK^—into (pBCRFR1). […]
FIG. 5B depicts the fluorimetrically measured change in intracellular Ca^2+ concentration in cells which stably express both the corticotropin-releasing factor (CRF) receptor and the T537M mutant of the α3-CNG channel. The time course of fluorescence intensity after stimulation of the cells with the agonist CRF is shown. […]
Cells which stably express the corticotropin-releasing factor (CRF) receptor and the T537M mutants of the α3-CNG channel were treated with the helical antagonist 9-41 (Rivier J., Rivier C., and Vale W. W. (1984) Synthetic competitive antagonists of corticotropin-releasing factor: effect on ACTH secretion in the rat. Science, 224, 889-891), before being stimulated with CRF (1 nM). The time course of fluorescence intensity is shown. […]

[4] = system: homooligomeric bovine α3 CNG channels; assay: Patch clamp electrophysiology of inside-out patches: activation of heterologously expressed CNG channels by cAMP and cGMP; assay type: biochemical; settings: for Hill coefficient n, cAMP / Hill coefficient n, cAMP, averaged / Hill coefficient n, cGMP / Hill coefficient n, cGMP, averaged: +100 mV; for Hill coefficient n, cAMP: fit of FIG. 1B / 3B; for Hill coefficient n, cAMP, averaged / Hill coefficient n, cGMP, averaged: normalized Hill equation; for Hill coefficient n, cAMP, averaged: averaged parameters (FIG. 1C / 3C); for Hill coefficient n, cGMP: fit of FIG. 2B / 4B; for Hill coefficient n, cGMP, averaged: averaged parameters (FIG. 2C / 4C); for relative selectivity: times more selective for cAMP: quotient K1/2 cGMP / K1/2 cAMP; for relative selectivity: times more selective for cGMP: quotient of K1/2 values
Text: For this purpose, the corresponding nucleic acids were cloned into the expression vector pcDNA3.1 (Invitrogen) (see Methods). The expression constructs were then used to transform the cells of the human embryonic kidney cell line 293 (HEK293 cells) and the corresponding proteins were functionally expressed therein either transiently or stably (see Methods). The results of the studies are depicted in FIGS. 1-4. FIGS. 1-4 B depict the dependence of the average current on the cAMP concentration and cGMP concentration, respectively, in each case in the form of a dose-response relationship. The results of these measurements were used to calculate the sensitivity of the CNG channels to cAMP and cGMP. […] EMBO J., 13, 5040-5050. For electrophysiological characterization, the cells were transferred to glass slides which had been coated with poly L-lysine, on the day after transfection. The electrophysiological studies were then carried out on the following day. […] The electrophysiological characterization of the genetically modified CNG channels was carried out using the patch clamp technique under voltage clamping conditions. […] inside-out patches were excised from cells which stably expressed genetically modified or wild-type CNG channels. The bath solution containing different concentrations of cyclic nucleotides was used to flow over the membrane patches. Starting from a holding voltage of 0 mV, sudden voltage changes were applied to different test voltages between -100 mV and +100 mV at the patch with a step width of 20 mV. The currents were registered and analyzed using standard methods.

α3-CNG channel = assay: Fluorescence-optical Ca2+ measurement: cAMP sensor sensitivity of α3-CNG channel variants after adenosine stimulation; assay type: cell-based
Text: as §1
The extent of the change in intracellular Ca^2+ concentration (fluorescence signal) was plotted as a function of time. […] Cells which stably express the T537S mutant of the α3-CNG channel were also stimulated for comparison.

[5] = maximum stimulation with 25 μm adenosine

Drosophila dopamine receptor, sequence (P41596 20-511): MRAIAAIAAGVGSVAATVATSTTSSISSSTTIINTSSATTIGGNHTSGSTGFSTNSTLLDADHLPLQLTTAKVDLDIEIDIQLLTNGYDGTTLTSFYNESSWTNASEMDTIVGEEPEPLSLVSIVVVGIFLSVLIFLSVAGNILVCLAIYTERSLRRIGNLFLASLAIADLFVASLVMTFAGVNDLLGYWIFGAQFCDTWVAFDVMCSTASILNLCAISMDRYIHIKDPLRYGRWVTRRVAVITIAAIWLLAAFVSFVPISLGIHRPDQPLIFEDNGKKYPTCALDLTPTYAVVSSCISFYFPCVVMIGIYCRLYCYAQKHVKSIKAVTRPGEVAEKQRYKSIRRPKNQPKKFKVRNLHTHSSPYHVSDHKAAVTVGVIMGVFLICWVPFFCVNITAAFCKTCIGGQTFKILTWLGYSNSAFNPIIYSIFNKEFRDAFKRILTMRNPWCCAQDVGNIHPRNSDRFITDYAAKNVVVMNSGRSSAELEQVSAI

NCCc1ccc(O)c(O)c1 [dopamine]
speed and extent of the change in Ca2+ concentration [1]: depend on the dopamine concentration

CC(C)Cn1c(=O)n(C)c(=O)c2[nH]cnc21 [IBMX]
extent of the forskolin-induced change in intracellular Ca2+ concentration [2]: depend on the concentration of the PDE inhibitor

Nc1ncnc2c1ncn2[C@@H]1O[C@H](CO)[C@@H](O)[C@H]1O [adenosine]
EC50 (Adenosine A2B receptor): 5 µM

CRF: corticotropin-releasing factor, agonist of the CRF receptor
speed and extent of the change in Ca2+ [3]: depend on the CRF concentration

B1: T537M: bovine α3 CNG channel with methionine in place of threonine T537 (SEQ ID NO 4) (protein, UniProt Q03041 1-663, looked up, variant T537M)
Cyclic nucleotide-gated …: MTEKANGVKSSPANNHNHHAPPAIKASGKDDHRASSRPQSAAADDTSSELQQLAEMDAPQQRRGGFRRIARLVGVLREWAYRNFREEEPRPDSFLERFRGPELHTVTTQQGDGKGDKDGEGKGTKKKFELFVLDPAGDWYYRWLFLIALPVLYNWCLLVARACFSDLQKGYYIVWLVLDYVSDVVYIADLFIRLRTGFLEQGLLVKDTKKLRDNYIHTMQFKLDVASIIPTDLIYFAVGIHNPEVRFNRLLHFARMFEFFDRTETRTSYPNIFRISNLILYILIIIHWNACIYYAISKSIGFGVDTWVYPNITDPEYGYLSREYIYCLYWSTLTLTTIGETPPPVKDEEYLFVIFDFLIGVLIFATIVGNVGSMISNMNATRAEFQAKIDAVKHYMQFRKVSKEMEAKVIRWFDYLWTNKKSVDEREVLKNLPAKLRAEIAINVHLSTLKKVRIFQDCEAGLLVELVLKLRPQVFSPGDYICRKGDIGKEMYIIKEGKLAVVADDGVTQYALLSAGSCFGEISILNIKGSKMGNRRMANIRSLGYSDLFCLSKDDLMEAVTEYPDAKRVLEERGREILMKEGLLDENEVAASMEVDVQEKLEQLETNMDTLYTRFARLLAEYTGAQQKLKQRITVLETKMKQNNEDDSLSDGMNSPEPPAEKP
Hill coefficient n, cAMP [4]: 2.4
Hill coefficient n, cAMP, averaged [4]: 2.4
Hill coefficient n, cGMP [4]: 2.0
Hill coefficient n, cGMP, averaged [4]: 1.9
relative selectivity: times more selective for cAMP [4]: about 6 times
times less sensitive to cGMP in comparison with the T537S mutant ([4]; ratio of K1/2 values): 21 times
times less sensitive to cGMP in comparison with the wild type ([4]; ratio of K1/2 values): about 9 times
times more sensitive to cAMP in comparison with the T537S mutant ([4]; ratio of K1/2 values): about 5 times
times more sensitive to cAMP in comparison with the wild type ([4]; ratio of K1/2 values): about 30 times
change in fluorescence signal (intracellular Ca2+) (α3-CNG channel; stimulation with 3 μm adenosine (about half maximum)): distinct increase in the fluorescence signal

B2: Wild Type: wild-type α3 subunit of the bovine CNG channel (SEQ ID NO 2) (protein)
chain: B1 Cyclic nucleotide-gated … with M537T
modifications: Bovine
Hill coefficient n, cAMP, averaged [4]: 2.0
Hill coefficient n, cGMP, averaged [4]: 2.0
relative selectivity: times more selective for cGMP [4]: about 50 times
change in fluorescence signal (intracellular Ca2+) (α3-CNG channel; [5]): no increase in the fluorescence signal

B3: T537S: known bovine α3 CNG channel subunit in which threonine 537 is replaced with serine (protein, UniProt Q03041 1-663, looked up, variant T537S)
Cyclic nucleotide-gated …: B1 Cyclic nucleotide-gated … with M537S
relative selectivity: times more selective for cGMP [4]: about 20 times
change in fluorescence signal (intracellular Ca2+) (α3-CNG channel; [5]): only a very low increase in the fluorescence signal

B4: T537V: bovine α3 CNG channel with valine in place of threonine T537 (SEQ ID NO 6) (protein)
chain: B1 Cyclic nucleotide-gated … with M537V
modifications: Bovine
Hill coefficient n, cAMP [4]: 2.2
Hill coefficient n, cAMP, averaged [4]: 1.5
Hill coefficient n, cGMP [4]: 2.2
Hill coefficient n, cGMP, averaged [4]: 2.1
relative selectivity: times more selective for cAMP [4]: about 6 times
times less sensitive to cAMP than the T537S mutant ([4]; ratio of K1/2 values): about 2.5 times
times less sensitive to cGMP in comparison with the T537S mutant ([4]; ratio of K1/2 values): about 350 times
times less sensitive to cGMP in comparison with the wild type ([4]; ratio of K1/2 values): about 150 times
times more sensitive to cAMP in comparison with the wild type ([4]; ratio of K1/2 values): ~3 times
